Test results as given in US7153676B1, “Transacylases of the paclitaxel biosynthetic pathway” (priority 1999, dated 2006).

Substrate: CC(=O)SCCNC(=O)CCNC(=O)[C@H](O)C(C)(C)COP(=O)(O)OP(=O)(O)OC[C@H]1O[C@@H](n2cnc3c(N)ncnc32)[C@H](O)[C@@H]1OP(=O)(O)O
Experiment: purified protein, by the assay type
Details: other: Lineweaver-Burk analysis, partially purified recombinant TAX6

B1: 10-deacetylbaccatin III-10-O-acetyl transferase (TAX6) (Taxus cuspidata) (protein)
chain: MAGSTEFVVRSLERVMVAPSQPSPKAFLQLSTLDNLPGVRENIFNTLLVYNASDRVSVDPAKVIRQALSKVLVYYSPFAGRLRKKENGDLEVECTGEGALFVEAMADTDLSVLGDLDDYSPSLEQLLFCLPPDTDIEDIHPLVVQVTRFTCGGFVVGVSFCHGICDGLGAGQFLIAMGEMARGEIKPSSEPIWKRELLKPEDPLYRFQYYHFQLICPPSTFGKIVQGSLVITSETINCIKQCLREESKEFCSAFEVVSALAWIARTRALQIPHSENVKLIFAMDMRKLFNPPLSKGYYGNFVGTVCAMDNVKDLLSGSLLRVVRIIKKAKVSLNEHFTSTIVTPRSGSDESINYENIVGFGDRRRLGFDEVDFGWGHADNVSLVQHGLKDVSVVQSYFLFIRPPKNNPDGIKILSFMPPSIVKSFKFEMETMTNKYVTKP
Q: With B1 as the protein, how does the Km read?
A: 8 µM
